# From patent US20160279261A1 (Genentech, published 2016)
# B1: CD33 CBI-PBD ADC2-2 (antibody, V domains shown)
# VH: QVQLVQSGAEVKKPGSSVKVSCKASGGIFSNHAISWVRQAPGQGLEWMGGIIPIFGTANYAQKFQGRVTITADESTSTAFMELSSLRSEDTAVYYCAREWADVFDIWGQGTMVTVSS
# VL: EIVLTQSPLSLPVTPGEPASISCRSSQSLLHSNGYNYLDWYLQKPGQSPQLLIYLGVNSVSGVPDRFSGSGSGTDFTLKISRVEAEDVGVYYCMQALQTPWTFGQGTKVEIK
# B2: CD33 CBI-PBD ADC3-2 (antibody, V domains shown)
# VH: B1 VH
# VL: B1 VL
# Molecular target: CD33 (UniProt P20138 18-364, limits assumed)
# Experiment: cell-based or functional assay
# CD33, sequence (P20138 18-364 limits assumed): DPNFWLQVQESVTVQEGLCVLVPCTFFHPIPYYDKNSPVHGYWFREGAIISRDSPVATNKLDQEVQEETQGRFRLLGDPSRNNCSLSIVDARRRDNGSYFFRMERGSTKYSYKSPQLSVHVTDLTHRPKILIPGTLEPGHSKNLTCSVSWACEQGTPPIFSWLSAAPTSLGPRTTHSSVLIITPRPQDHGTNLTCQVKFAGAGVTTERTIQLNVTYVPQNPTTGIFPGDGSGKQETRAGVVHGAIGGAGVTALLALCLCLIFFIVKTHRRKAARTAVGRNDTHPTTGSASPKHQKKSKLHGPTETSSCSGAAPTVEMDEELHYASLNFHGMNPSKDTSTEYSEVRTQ
row,Binder,EOL-1 IC50 (in vitro cell proliferation assay) [µg/mL]
1,B1,0.37
2,B2,0.0181
